From article PMC4264199, “Peptide Array on Cellulose Support—A Screening Tool to Identify Peptides with Dipeptidyl-Peptidase IV Inhibitory Activity within the Sequence of α-Lactalbumin” (International Journal of Molecular Sciences, 2014)
Ends that are not written are not given here.

Assays:
[1] = target: T1, dipeptidyl-peptidase IV (DPP-IV) (Homo sapiens, UniProt P27487); experiment: DPP-IV inhibition assay on SPOT-synthesized peptides (cleaved from cellulose membrane); type: biochemical; settings: peptides cleaved from cellulose membrane, concentration not known (semi-quantitative); averages of four determinations from two experiments
T1 construct: purchased Creative BioMart (Shirley, NY, USA); host or cells: HEK293 human cells
T1 sequence (P27487 whole entry): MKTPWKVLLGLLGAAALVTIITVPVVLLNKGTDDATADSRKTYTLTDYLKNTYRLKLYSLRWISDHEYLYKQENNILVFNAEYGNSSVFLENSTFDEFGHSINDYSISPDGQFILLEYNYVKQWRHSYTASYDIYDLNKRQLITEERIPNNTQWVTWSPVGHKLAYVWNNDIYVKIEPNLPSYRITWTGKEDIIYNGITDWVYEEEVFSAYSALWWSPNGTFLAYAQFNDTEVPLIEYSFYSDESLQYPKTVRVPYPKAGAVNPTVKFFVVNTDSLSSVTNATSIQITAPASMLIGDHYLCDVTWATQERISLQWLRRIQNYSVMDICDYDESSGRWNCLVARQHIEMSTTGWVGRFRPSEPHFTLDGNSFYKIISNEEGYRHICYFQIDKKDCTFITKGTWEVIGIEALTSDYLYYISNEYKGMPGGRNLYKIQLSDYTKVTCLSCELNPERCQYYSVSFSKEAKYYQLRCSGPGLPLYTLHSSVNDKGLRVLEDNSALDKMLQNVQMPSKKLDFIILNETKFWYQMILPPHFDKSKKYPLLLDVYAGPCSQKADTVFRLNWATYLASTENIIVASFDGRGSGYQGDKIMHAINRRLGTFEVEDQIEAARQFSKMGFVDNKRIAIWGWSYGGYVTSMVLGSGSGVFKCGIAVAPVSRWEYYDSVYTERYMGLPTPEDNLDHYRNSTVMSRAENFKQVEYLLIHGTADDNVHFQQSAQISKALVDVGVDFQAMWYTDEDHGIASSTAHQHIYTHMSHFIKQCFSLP
Source text: (§1) Recombinant human dipeptidyl-peptidase IV (DPP-IV, EC 3.4.14.5, expressed in HEK293 human cells, >95% purity, activity >5500 pmoles Gly–Pro–7-amido-4-methylcoumarin/min/µg) was purchased from Creative BioMart (Shirley, NY, USA) while polyclonal goat DPP-IV antibody and polyclonal donkey anti-goat secondary antibody conjugated to horseradish peroxidase were obtained from R&D Systems (Minneapolis, MN, USA). Pierce™ ECL western blotting substrate and protein-free (TBS) blocking buffer were from Thermo Scientific (Rockford, IL, USA). Gly–Pro–p-nitroanilide (H-Gly–Pro–p-NA∙HCl) was purchased from Bachem Americas (Torrance, CA, USA). Synthesized peptides (≥95% purity) were prepared and purified by GL Biochem (Shanghai) Ltd. (Shanghai, China).
Peptide arrays of deca-peptides spanning the entire α-lactalbumin sequence with a frame shift of one amino acid between successive sequences were prepared by Kinexus Bioinformatics Corporation (Vancouver, BC, Canada). The peptides were synthesized from the C-terminal amino acid using the SPOT technology consisting of the stepwise coupling of the Fmoc-protected amino acids and cleavage of the side chain protection groups. The α-lactalbumin-derived peptides were synthesized on trioxatridecanediamine (TOTD) and β-alanine-modified Whatman 540 cellulose membranes for the binding and inhibition assays, respectively. For the inhibition assay, the peptides were synthesized in large dots (5–7 mm in diameter) and the quality of the synthesis was verified by HPLC analysis of quality controls spots included on the membranes.
In order to determine the effect of the SPOT-synthesized peptides on the activity of the DPP-IV enzyme, the peptides were first cleaved from the cellulose support by incubating the membranes with gaseous ammonia overnight. Peptide spots (5 mm in diameter) were then punched out using a single-hole punch and transferred into microcentrifuge tubes containing 150 µL of acetonitrile (50% in 100 mM Tris–HCl buffer pH 8.0). The peptide solution (50 µL) was pipetted into a 96-well microplate with 35 µL of the chromogenic substrate Gly–Pro–p-NA (0.29 mM in 100 mM Tris–HCl buffer pH 8.0). The mixture was pre-incubated for 10 min at 37 °C, whereupon 15 µL of DPP-IV (25 mU/mL) was added and the enzymatic reaction was carried out for 30 min at 37 °C. The reaction was then terminated by addition of 100 µL of 1 M sodium acetate buffer pH 4.0 and the absorbance of the released p-nitroaniline was measured at 405 nm using a Tecan Infinite® 200 Pro microplate reader (ESBE Scientific, Markham, ON, Canada). Positive and negative controls (DPP-IV activity with no inhibitor and no DPP-IV activity, respectively) were prepared using punched peptide-free cellulose spots from the same membrane used for peptide synthesis, and adding Tris-HCl buffer in place of the sample and in place of the sample and enzyme solution, respectively.
One unit of DPP-IV was defined as the concentration of enzyme that releases 1 µmol per min of p-nitroaniline from Gly–Pro–p-NA (100 µM) at 37 °C and pH 8.0.

[2] = target: T1, dipeptidyl-peptidase IV (DPP-IV); experiment: DPP-IV inhibition assay on traditionally-synthesized peptides; type: biochemical; settings: 250 µM of peptides (final assay concentration); averages of three determinations
Source text: as §1
The peptides were dissolved in a mixture of acetonitrile and H2O and further diluted in 100 mM Tris-HCl pH 8.0 buffer to the desired concentrations. In a 96-well microplate, 25 µL of sample were pre-incubated with 25 µL of 100 mM Tris-HCl pH 8.0 buffer and 35 µL of Gly–Pro–p-NA (0.29 mM in 100 mM Tris-HCl buffer pH 8.0) at 37 °C for 10 min. The enzymatic reaction was started by addition of 15 µL of DPP-IV solution (25 mU/mL) and carried out at 37 °C for 30 min. Sodium acetate buffer (1 M, pH 4.0, 100 µL) was added to stop the reaction and the absorbance of the released p-nitroaniline was measure at 405 nm using a Tecan Infinite® 200 Pro microplate reader. The positive and negative controls were prepared by using Tris-HCl buffer (100 mM, pH 8.0) in place of the sample and in place of the sample and enzyme solution, respectively.

Substance	Percent inhibition of DPP-IV activity, SPOT-synthesized deca-peptides [1] [%]	inhibition at 250 µM [2] [%]
GYGGVSLPEW [B6, GYGGVSLPEW]	17	8
QNPHSSNICN [F10, QNPHSSNICN]	8	2
EQLTKCEVFR [A1, EQLTKCEVFR]	11	10
DTQAIVQNND [D4, DTQAIVQNND]	14	2
G4: α-lactalbumin-derived deca-peptide, residues 70–79 (Table S1) (SNICNISCDK; UniProt P00711 89-98, looked up, fragment)	19	–
QNNDSTEYGL [D10, QNNDSTEYGL]	14	–
QINNKIWCKD [E10, QINNKIWCKD]	6	–
C7: α-lactalbumin-derived deca-peptide, residues 29–38 (Table S1) (TTFHTSGYDT; UniProt P00711 48-57, looked up, fragment)	5	–
B9: α-lactalbumin-derived deca-peptide, residues 20–29 (Table S1) (GVSLPEWVCT; UniProt P00711 39-48, looked up, fragment)	15	–
H5: α-lactalbumin-derived deca-peptide, residues 82–91 (Table S1) (DDDITDDIMC; UniProt P00709 101-110, looked up, fragment)	14	–
C8: α-lactalbumin-derived deca-peptide, residues 30–39 (Table S1) (TFHTSGYDTQ; UniProt P00711 49-58, looked up, fragment)	13	–
H10: α-lactalbumin-derived deca-peptide, residues 87–96 (Table S1) (DDIMCVKKIL; UniProt P00711 106-115, looked up, fragment)	20	–
G5: α-lactalbumin-derived deca-peptide, residues 71–80 (Table S1) (NICNISCDKF; UniProt P00711 90-99, looked up, fragment)	25	–
DSTEYGLFQI [E2]	14	–
NNKIWCKDDQ [F1]	22	–
FHTSGYDTQA [C9, FHTSGYDTQA]	12	2
VFRELKDLKG [A8, VFRELKDLKG]	14	3
B8: α-lactalbumin-derived deca-peptide, residues 19–28 (Table S1) (GGVSLPEWVC; UniProt P00711 38-47, looked up, fragment)	15	–
NNDSTEYGLF [D11, NNDSTEYGLF]	11	–

Substance	Percent inhibition of DPP-IV activity, SPOT-synthesized deca-peptides [1] [%]	inhibition at 250 µM [2] [%]
H1: α-lactalbumin-derived deca-peptide, residues 78–87 (Table S1) (DKFLDDDLTD; UniProt P00711 97-106, looked up, fragment)	19	–
TSGYDTQAIV [C11, TSGYDTQAIV]	14	-1
J4: α-lactalbumin-derived deca-peptide, residues 103–112 (Table S1) (YWLAHKALCS; UniProt P00711 122-131, looked up, fragment)	20	–
C6: α-lactalbumin-derived deca-peptide, residues 28–37 (Table S1) (CTTFHTSGYD; UniProt P00711 47-56, looked up, fragment)	10	–
AHKALCSEKL [J7]	21	–
H11: α-lactalbumin-derived deca-peptide, residues 88–97 (Table S1) (DIMCVKKILD; UniProt P00711 107-116, looked up, fragment)	15	–
H7: α-lactalbumin-derived deca-peptide, residues 84–93 (Table S1) (DLTDDIMCVK; UniProt P00711 103-112, looked up, fragment)	25	–
ALCSEKLDQW [J10]	21	–
STEYGLFQIN [E3]	13	–
D1: α-lactalbumin-derived deca-peptide, residues 34–43 (Table S1) (SGYDTQAIVE; UniProt P00709 53-62, looked up, fragment)	11	–
SEKLDQWLCE [K2]	19	–
DDQNPHSSNI [F8]	15	–
I6: α-lactalbumin-derived deca-peptide, residues 94–103 (Table S1) (KILDKVGINY; UniProt P00711 113-122, looked up, fragment)	20	–
CKDDQNPHSS [F6, CKDDQNPHSS]	15	-3
C4: α-lactalbumin-derived deca-peptide, residues 26–35 (Table S1) (WVCTTFHTSG; UniProt P00711 45-54, looked up, fragment)	26	–
G9: α-lactalbumin-derived deca-peptide, residues 75–84 (Table S1) (ISCDKFLDDD; UniProt P00711 94-103, looked up, fragment)	18	–
I10: α-lactalbumin-derived deca-peptide, residues 98–107 (Table S1) (KVGINYWLAH; UniProt P00711 117-126, looked up, fragment)	22	–
IWCKDDQNPH [F4]	21	–
J5: α-lactalbumin-derived deca-peptide, residues 104–113 (Table S1) (WLAHKALCSE; UniProt P00711 123-132, looked up, fragment)	16	–
